Data published in article PMC5067487.

Key:
Test in all cases: ITC; peptide (100 uM stock in ddH2O) titrated into PadeB1 or variant (5-10 uM) in the sample cell; 50 mM Tris, 5 mM MgCl2, pH 8.0; 25 °C; One Set of Sites model; triplicate
[1] = target: PadeB1 D79A (Paenibacillus dendritiformis C454)
[2] = target: PadeB1 N40A (Paenibacillus dendritiformis C454)
[3] = target: PadeB1 (Paenibacillus dendritiformis C454)
[4] = target: PadeB1 D23A (Paenibacillus dendritiformis C454)
[5] = target: PadeB1 I61A (Paenibacillus dendritiformis C454)
[6] = target: PadeB1 Y38A (Paenibacillus dendritiformis C454)
[7] = target: PadeB1 K28A (Paenibacillus dendritiformis C454)
[8] = target: PadeB1 W49A (Paenibacillus dendritiformis C454)

Row | Substance | Kd [1] | Kd [2] | Kd [3] | Kd [4] | Kd [5] | Kd [6] | Kd [7] | Kd [8]
1 | leader peptide of PadeA | 150 nM | 16 nM | 5.3 nM | 2.4 nM | 73 nM | 6.2 nM | 2.7 nM | 140 nM
2 | full-length precursor peptide GP-PadeA |  |  | 4 nM |  |  |  |  | 
